Reference: patent US20180127513A1 (Bristol-Myers Squibb, published 2018)

T1: N-hCD73-his (human, UniProt P21589 26-336)
T1 construct: also called hCD73(26-336)His; CD73(26-336)His; not shown: His tag
T1 sequence: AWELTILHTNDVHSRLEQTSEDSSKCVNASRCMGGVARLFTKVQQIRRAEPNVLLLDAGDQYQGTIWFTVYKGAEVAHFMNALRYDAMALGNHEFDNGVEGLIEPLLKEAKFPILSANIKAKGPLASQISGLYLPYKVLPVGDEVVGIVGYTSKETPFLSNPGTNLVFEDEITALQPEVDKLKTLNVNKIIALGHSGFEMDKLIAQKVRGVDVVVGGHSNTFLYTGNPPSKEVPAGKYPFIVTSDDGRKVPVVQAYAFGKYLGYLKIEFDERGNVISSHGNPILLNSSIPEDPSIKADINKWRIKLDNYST

T2: human CD73 on cells (human, UniProt P21589 27-549)
T2 sequence: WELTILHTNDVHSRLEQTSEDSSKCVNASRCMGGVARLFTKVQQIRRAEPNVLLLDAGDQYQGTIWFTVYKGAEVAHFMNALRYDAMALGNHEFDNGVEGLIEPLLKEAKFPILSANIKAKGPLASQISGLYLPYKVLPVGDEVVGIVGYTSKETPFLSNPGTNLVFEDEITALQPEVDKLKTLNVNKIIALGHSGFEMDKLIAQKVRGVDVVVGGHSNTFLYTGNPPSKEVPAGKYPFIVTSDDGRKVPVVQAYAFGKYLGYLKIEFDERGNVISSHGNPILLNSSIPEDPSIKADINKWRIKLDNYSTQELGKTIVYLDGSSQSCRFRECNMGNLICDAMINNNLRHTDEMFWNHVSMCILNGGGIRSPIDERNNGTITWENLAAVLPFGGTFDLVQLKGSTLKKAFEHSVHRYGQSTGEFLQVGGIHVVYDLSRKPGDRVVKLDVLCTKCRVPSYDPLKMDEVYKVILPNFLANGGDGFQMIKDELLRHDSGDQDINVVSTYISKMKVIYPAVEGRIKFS


Key:
N-hCD73-his = biological target: T1, N-hCD73-his; assay: SPR
Text: One experimental format tested the binding of the N-terminal domain of hCD73 (consisting of residues 26-336 of human CD73; termed N-hCD73) to antibodies that were captured on immobilized protein A surfaces. For these experiments, protein A (Pierce) was immobilized to a density of 3000-4000 RU on flow cells 1-4 of a CM5 sensor chip (GE Healthcare) using standard ethyl(dimethylaminopropyl) carbodiimide (EDC)/N-hydroxysuccinimide (NHS) chemistry, with ethanolamine blocking, in a running buffer of 0.01 M HEPES pH 7.4, 0.15 M NaCl, 3 mM EDTA, 0.005% v/v tween 20. […] The running buffer for the kinetic experiments was 10 mM sodium phosphate, 130 mM sodium chloride, 0.05% tween 20, pH 7.1. The surfaces were regenerated after each cycle using two 30 s pulses of 10 mM glycine pH 1.5 at a flow rate of 30 μl/min. Sensogram data was double-referenced and then fitted to a 1:1 Langmuir model using Biacore T100 evaluation software v2.0.4, to determine the association rate constant (ka), the dissociation rate constant (kd), and the equilibrium dissociation constant (KD).

human CD73 on cells [1] = biological target: T2, human CD73 on cells; assay: cell-based or functional assay
human CD73 on cells [2] = biological target: T2, human CD73 on cells; assay: cell-based or functional assay; remark: listed apart in the source

Kd (N-hCD73-his)	Ymax, CD73 internalization (100 nM 11F11 set to 100%) (human CD73 on cells [1])	Ymax, cAMP HTRF assay (100 nM 11F11 set to 100%) (human CD73 on cells [2])	Binder
1.1 nM	–	–	CD73.4-IgG2-C219S (antibody, also called CD73.4-IgG2CS; CD73.4-IgG2.3; copies: 2 + 2) heavy: QVQLVESGGGVVQPGRSLRLSCAASGFTFSNYGMHWVRQAPGKGLEWVAVILYDGSNKYYPDSVKGRFTISRDNSKNTLYLQMNSLRAEDTAVYYCARGGSSWYPDSFDIWGQGTMVTVSSASTKGPSVFPLAPCSRSTSESTAALGCLVKDYFPEPVTVSWNSGALTSGVHTFPAVLQSSGLYSLSSVVTVPSSNFGTQTYTCNVDHKPSNTKVDKTVERKSCVECPPCPAPPVAGPSVFLFPPKPKDTLMISRTPEVTCVVVDVSHEDPEVQFNWYVDGVEVHNAKTKPREEQFNSTFRVVSVLTVVHQDWLNGKEYKCKVSNKGLPAPIEKTISKTKGQPREPQVYTLPPSREEMTKNQVSLTCLVKGFYPSDIAVEWESNGQPENNYKTTPPMLDSDGSFFLYSKLTVDKSRWQQGNVFSCSVMHEALHNHYTQKSLSLSPG light: not shown
~5 nM	99%	–	CD73.10-IgG2-C219S (antibody, also called CD73.10-IgG2CS; CD73.10-IgG2S) heavy: QVQLVESGGGVVQPGRSLRLSCAASGFTFSNYGMHWVRQAPGKGLEWVAVIWYDESNKYYPDSVKGRFTISRDNSKNTLYLQMNSLRAEDTAVYYCARGGSSWYPDSFDIWGQGTMVTVSSASTKGPSVFPLAPCSRSTSESTAALGCLVKDYFPEPVTVSWNSGALTSGVHTFPAVLQSSGLYSLSSVVTVPSSNFGTQTYTCNVDHKPSNTKVDKTVERKSCVECPPCPAPPVAGPSVFLFPPKPKDTLMISRTPEVTCVVVDVSHEDPEVQFNWYVDGVEVHNAKTKPREEQFNSTFRVVSVLTVVHQDWLNGKEYKCKVSNKGLPAPIEKTISKTKGQPREPQVYTLPPSREEMTKNQVSLTCLVKGFYPSDIAVEWESNGQPENNYKTTPPMLDSDGSFFLYSKLTVDKSRWQQGNVFSCSVMHEALHNHYTQKSLSLSPG light: not shown
–	97%	–	CD73.4-IgG2-C219S-IgG1.1f (antibody, N-terminal Gln 94% pyro-Q; 97% of heavy chains lack the C-terminal Lys) heavy: QVQLVESGGGVVQPGRSLRLSCAASGFTFSNYGMHWVRQAPGKGLEWVAVILYDGSNKYYPDSVKGRFTISRDNSKNTLYLQMNSLRAEDTAVYYCARGGSSWYPDSFDIWGQGTMVTVSSASTKGPSVFPLAPCSRSTSESTAALGCLVKDYFPEPVTVSWNSGALTSGVHTFPAVLQSSGLYSLSSVVTVPSSNFGTQTYTCNVDHKPSNTKVDKTVERKSCVECPPCPAPPVAGPSVFLFPPKPKDTLMISRTPEVTCVVVDVSHEDPEVKFNWYVDGVEVHNAKTKPREEQYNSTYRVVSVLTVLHQDWLNGKEYKCKVSNKALPSSIEKTISKAKGQPREPQVYTLPPSREEMTKNQVSLTCLVKGFYPSDIAVEWESNGQPENNYKTTPPVLDSDGSFFLYSKLTVDKSRWQQGNVFSCSVMHEALHNHYTQKSLSLSPG light: not shown
–	99%	–	CD73.10-IgG2-C219S-IgG1.1f (antibody) heavy: QVQLVESGGGVVQPGRSLRLSCAASGFTFSNYGMHWVRQAPGKGLEWVAVIWYDESNKYYPDSVKGRFTISRDNSKNTLYLQMNSLRAEDTAVYYCARGGSSWYPDSFDIWGQGTMVTVSSASTKGPSVFPLAPCSRSTSESTAALGCLVKDYFPEPVTVSWNSGALTSGVHTFPAVLQSSGLYSLSSVVTVPSSNFGTQTYTCNVDHKPSNTKVDKTVERKSCVECPPCPAPPVAGPSVFLFPPKPKDTLMISRTPEVTCVVVDVSHEDPEVKFNWYVDGVEVHNAKTKPREEQYNSTYRVVSVLTVLHQDWLNGKEYKCKVSNKALPSSIEKTISKAKGQPREPQVYTLPPSREEMTKNQVSLTCLVKGFYPSDIAVEWESNGQPENNYKTTPPVLDSDGSFFLYSKLTVDKSRWQQGNVFSCSVMHEALHNHYTQKSLSLSPG light: not shown
~5 nM	104%	–	4D4 (antibody, human IgG2, kappa, IgG2; also called 4D4-1) heavy: QVQLVESGGGVVQPGRSLRLSCAASGFTFSNYGMHWVRQAPGKGLEWVAVIWYDESNKYYADSVKGRFTISRDNSKNTLFLQMNSLRAEDTAVYYCARGYNSRWYPDAFDIWGQGTMVTVSSASTKGPSVFPLAPCSRSTSESTAALGCLVKDYFPEPVTVSWNSGALTSGVHTFPAVLQSSGLYSLSSVVTVPSSNFGTQTYTCNVDHKPSNTKVDKTVERKCCVECPPCPAPPVAGPSVFLFPPKPKDTLMISRTPEVTCVVVDVSHEDPEVQFNWYVDGVEVHNAKTKPREEQFNSTFRVVSVLTVVHQDWLNGKEYKCKVSNKGLPAPIEKTISKTKGQPREPQVYTLPPSREEMTKNQVSLTCLVKGFYPSDIAVEWESNGQPENNYKTTPPMLDSDGSFFLYSKLTVDKSRWQQGNVFSCSVMHEALHNHYTQKSLSLSPGK light: not shown
~5 nM	–	–	CD73.11-IgG2-C219S (antibody, also called CD73.11-IgG2CS) heavy: QVQLVESGGGVVQPGRSLRLSCAASGFTFSNYGMHWVRQAPGKGLEWVAVIWYDESNKYYADSVKGRFTISRDNSKNTLFLQMNSLRAEDTAVYYCARGYNSRWYPDAFDIWGQGTMVTVSSASTKGPSVFPLAPCSRSTSESTAALGCLVKDYFPEPVTVSWNSGALTSGVHTFPAVLQSSGLYSLSSVVTVPSSNFGTQTYTCNVDHKPSNTKVDKTVERKSCVECPPCPAPPVAGPSVFLFPPKPKDTLMISRTPEVTCVVVDVSHEDPEVQFNWYVDGVEVHNAKTKPREEQFNSTFRVVSVLTVVHQDWLNGKEYKCKVSNKGLPAPIEKTISKTKGQPREPQVYTLPPSREEMTKNQVSLTCLVKGFYPSDIAVEWESNGQPENNYKTTPPMLDSDGSFFLYSKLTVDKSRWQQGNVFSCSVMHEALHNHYTQKSLSLSPG light: not shown
–	–	80%	5F8 (antibody, human IgG1, kappa, V domains shown) VH: EVQLVESGGGLVQPGGSLRLSCAASGFTFSSYWMHWVRQAPGKGLVWVSRIISDGSSTGYADSVKGRFTISRDNAKNTLYLQMNSLRAEDTAVYYCAREFSSGWYFDYWGQGTLVTVSS VL: AIQLTQSPSSLSASVGDRVTITCRASQGISSALAWYQQKPGKAPKLLIYDASSLESGVPSRFSGSGSGTDFTLTISSLQPEDFATYYCQQFSSYPRTFGQGTKVEIKR
–	–	84%	11A6 (antibody, human IgG1, kappa, V domains shown) VH: EVQLVESGGNLVQPGRSLRLSCAASGFTFDDYAMHWVRQAPGKGLEWVSGISWNNNDIGYADSVKGRFIISRDNAKNSLYLQMNSLRPEDTALYYCVKGYYVILTGLDYWGQGTPVTVSS VL: DIQMTQSPSSLSASVGDRVTITCRASQGISSWLAWYQQKPEKAPKSLIYAASSLQSGVPSRFSGSGSGTDFTLTISSLQPEDFATYYCQQYNSYPLTFGGGTKVEIKR
–	29%	–	10D2 (antibody, human IgG4, kappa, V domains shown) VH: QVQLVESGGGVVQPGRSLRLSCAASGFTFSNYGLHWVRQAPGKGLEWVAVIRYDGSNKYYADSVKGRFTISRDNSKNTLYLQMSSLRAEDTAVYYCARGGSSWYPDGLDVWGQGTTVTVSS VL: DIQMTQSPSSLSASVGDRVTITCRASQGISSWLAWYQQKPEKAPKSLIYAASSLQSGVPSRFSGSGSGTDFTLTISSLQPEDFATYYCQQYNSYPLTFGGGTKVEIKR
100 to 200 nM	–	80%	4C3 (antibody, human IgG1, kappa, V domains shown, IgG1za; also called 4C3-1) VH: EVQLVESGGGLVQPGRSLRLSCAASGFTFDDYAMHWVRQAPGKGLEWVSGISWKSGSIGYADSVKGRFTISRDNAKNSLYLQMNSLRAEDTALYYCVKGYYVILTGLDYWGQGTLVTVSS VL: not shown
–	50%	45%	7A11 (antibody, human IgG1, kappa, V domains shown) VH: EVQLVESGGGLVQTGRSLRLSCAASGFTFDDYAMHWVRQAPGKGLEWVSDISWNSDIIGYADSVKGRFTISRDNAKNSLYLQMNSLRAEDTALYYCAKDIYGSGSSFFDYWGQGILVTVSS VL: DIQMTQSPSSLSASVGDRVTITCRASQYISSWLAWYQQKPEKAPKSLIYAASSLQSGVPSRFSGSGSGTDFTLTISSLQPEDFATYYCQQYHSYPPTFGQGTRLEIKR
–	51%	–	24H2 (antibody, human IgG4, kappa, V domains shown) VH: QVQLVESGGGVVQPGRSLRLSCAASGFTFSNYGMHWVRQAPGKGLEWVAVIWYDGGNKYYADSVKGRFTISRDNSKNTLFLQMNSLRAEDTAVYYCARGGSSWYPDAFDIWGQGTMVTVSS VL: DIQMTQSPSSLSASVGDRVTITCRASQGISSWLAWYQQKPEKAPKSLIYAASSLQSGVPSRFSGSGSGTDFTLTISSLQPEDFATYYCQQYNSYPLTFGGGTKVEIKR
